From article PMC7456325, “Diversity in the intrinsic apoptosis pathway of nematodes” (Communications Biology, 2020)

B1: T. suis protein A BH3 peptide (peptide)
peptide: SVRAPIRLCDAMFLMCDLFERKFHDR
notes: BH3 domain of Trichuris suis BCL-2-like protein A (ID# BCL_199); also called T. suis A BH3 domain peptide; source: synthetic peptide (Mimotopes, Australia, >90% purity)
B2: T. suis protein B BH3 peptide (peptide)
peptide: PILPEVNKTALCMRAMGEVFEDRYKT
notes: BH3 domain of Trichuris suis BCL-2-like protein B (ID# BCL_257); also called T. suis B BH3 domain peptide; source: synthetic peptide (Mimotopes, Australia, >90% purity)
B3: BAK BH3 peptide (peptide)
peptide: PSSTMGQVGRQLAIIGDDINRRYDSE
notes: BH3 domain of BAK; also called BAK BH3 domain; source: synthetic peptide (Mimotopes, Australia, >90% purity)

Tests used:
[1] = biological target: T1, T. suis A ΔC28 (Trichuris suis BCL-2-like protein A, C-terminal truncation) (Trichuris suis, labelled with the NHS RED NanoTemper labelling kit (MO-L001) for MST); assay: MST; Monolith NT.115; protein labelled with NHS RED, unlabelled synthetic peptide diluted in phosphate-buffered saline; 30 min incubation; 25 °C; 40% LED and 40% MST power; three independent experiments, single binding model; settings: both partners purified
T1 chain: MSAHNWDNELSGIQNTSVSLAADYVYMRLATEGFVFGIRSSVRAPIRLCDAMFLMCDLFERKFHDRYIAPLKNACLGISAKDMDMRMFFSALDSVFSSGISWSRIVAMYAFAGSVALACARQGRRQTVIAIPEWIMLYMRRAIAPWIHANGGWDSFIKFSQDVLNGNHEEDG

BCL-XLΔC24 = BCL-XLΔC24 (labelled with the NHS RED NanoTemper labelling kit (MO-L001) for MST); assay: as above; settings: both partners purified
Sequence of BCL-XLΔC24 (labelled with the NHS RED NanoTemper labelling kit (MO-L001) for MST) (chain, as listed by the source mutant): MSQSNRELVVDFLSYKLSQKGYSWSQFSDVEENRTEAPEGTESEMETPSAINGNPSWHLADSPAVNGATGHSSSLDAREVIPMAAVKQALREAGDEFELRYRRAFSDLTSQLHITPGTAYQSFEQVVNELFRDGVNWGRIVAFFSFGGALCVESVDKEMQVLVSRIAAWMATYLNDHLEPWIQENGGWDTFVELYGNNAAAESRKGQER

Binder | Kd [1] | Kd (BCL-XLΔC24)
B1 | > 50 µM | –
B2 | > 50 µM | –
B3 | – | 0.178 ± 0.034 µM
